The values that follow come from patent publication US20070202045A1.

This experiment has as its target Rabbit SA (rabbit) (UniProt P49065). Description: competition ELISA (SA08b binding to rabbit albumin).

Chain of Rabbit SA (rabbit) (P49065 25-608): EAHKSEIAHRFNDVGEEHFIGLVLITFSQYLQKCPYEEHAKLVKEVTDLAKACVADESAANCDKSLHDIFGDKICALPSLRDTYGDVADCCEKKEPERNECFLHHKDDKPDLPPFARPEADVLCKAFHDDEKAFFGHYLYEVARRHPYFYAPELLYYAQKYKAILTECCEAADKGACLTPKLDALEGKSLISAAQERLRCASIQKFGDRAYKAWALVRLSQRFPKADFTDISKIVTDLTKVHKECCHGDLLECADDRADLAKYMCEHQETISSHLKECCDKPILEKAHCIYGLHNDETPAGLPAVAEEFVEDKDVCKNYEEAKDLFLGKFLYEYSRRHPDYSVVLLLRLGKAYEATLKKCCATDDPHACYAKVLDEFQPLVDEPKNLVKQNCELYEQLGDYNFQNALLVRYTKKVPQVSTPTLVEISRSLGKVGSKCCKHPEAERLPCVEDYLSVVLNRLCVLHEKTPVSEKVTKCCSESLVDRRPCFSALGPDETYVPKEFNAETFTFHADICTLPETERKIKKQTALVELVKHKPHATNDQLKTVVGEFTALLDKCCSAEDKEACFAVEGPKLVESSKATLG

For orientation: IC50 means the concentration needed to halve the response being measured. Substance dia4D5 had an IC50 of 10 nM.
